Read-outs that look alike come from different tables or passages of the source. No end group written: not given here.
Tests used:
[1] = biological target: T1, Mas receptor (Homo sapiens, UniProt P04201); assay: Calcium flux in Mas-transfected CHO-K1 cells; type: cell-based; conditions: for ability to induce calcium flux, relative potency (P33 family): 0.1, 1, 10, 100, 1000 and 10000 nM; for ability to induce calcium flux, relative potency (P61 family): dose response, Mas-transfected cells
T1 construct: expressed in transfected cells; host or cells: CHO-K1 (ATCC-CCL-61), transient co-transfection
T1 sequence (P04201 1-325): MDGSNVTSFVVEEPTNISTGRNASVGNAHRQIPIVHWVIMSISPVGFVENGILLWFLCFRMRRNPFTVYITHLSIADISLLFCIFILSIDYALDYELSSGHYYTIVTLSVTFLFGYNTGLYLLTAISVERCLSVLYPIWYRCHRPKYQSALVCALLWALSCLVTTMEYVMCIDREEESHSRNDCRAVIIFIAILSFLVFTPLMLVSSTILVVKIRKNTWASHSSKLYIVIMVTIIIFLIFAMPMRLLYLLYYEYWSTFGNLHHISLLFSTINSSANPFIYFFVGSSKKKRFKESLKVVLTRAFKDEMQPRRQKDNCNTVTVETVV
Protocol: (§1) The assay was carried out in CHO cells were transiently transfected with the GPCR of choice, by utilizing the promiscuous Gα16 to divert signaling to the Gq pathway, thus enabling readout of GPCR activation by testing for Calcium flux as described by Liu et al 2003 (Biomol Screen 8, 39-49).
(§2) All the peptides thus obtained were tested for their ability to change calcium flux in CHO-K1 cells (ATCC-CCL-61) transiently co-transfected with an expression vector containing the GPCR of choice and expression vector containing the Gα16 encoding cDNA. Expression constructs containing cDNA clones for MrgX1, MrgX2, Mas or FPRL1 were commercially obtained in one of the following expression vectors: pcDNA3.1, pCMV6, or MO2.
(§3) Transient transfections were performed using CHO-K1 cells as host cells. Cells (12 million) were plated into T75 flasks on the day preceding transfection. Cells were transfected with the appropriate GPCR expression vector and with a vector expressing Gα16 using a lipid-based reagent, MTI, according to the manufacturer's recommendation. Cells were transfected for 5 hours, then re-plated into 96-well dishes (60,000 cells per well) and grown overnight.
(§4) On the day of the experiment, cells were loaded with Fluo-4-NW (Invitrogen) according to the manufacturer's recommendation. Plates were loaded into a FlexStation™ (Molecular Devices) plate reader and fluorescence was monitored. Seventeen seconds following initiation of reading, cells were stimulated with the indicated agonist/compound at final concentration of 1 μM. Each 96 well plate contained cells transfected with one GPCR expression vector and each of the examined peptides was tested in triplicate.
(§5) We defined a hit as a peptide which elicited a clear and distinct increase in intracellular calcium that is clearly visible and statistically significant upon examination of the calcium trace for at least two repeats. The criterion for statistical significance was a p-value lower than 0.001 in a t-test comparing the levels of calcium before and after peptide addition.
Based on dose response experiments, EC50 best fit values were calculated by non-linear regression of sigmoidal dose-response curves, using Prism version 4 (GraphPad Software Inc., San Diego, Calif.). The formulae for the sigmoidal dose-response curves was defined as Y=Bottom+(Top−Bottom)/(1+10^(Log EC50−X)*HillSlope))
The ability of Peptides to change calcium flux was examined in CHO-K1 cells co-transfected with Mas receptor and Gα16.
The P33 monomer and dimer, as well as other P33 derivative peptides were compared for their ability to induce calcium flux in the Mas-transfected cells at 0.1, 1, 10, 100, 1000 and 10000 nM.

[2] = biological target: T2, FPRL1 (Homo sapiens, UniProt P25090); assay: Calcium flux in FPRL1-transfected CHO-K1 cells; type: cell-based; set-up: expressed in transfected cells; host or cells: CHO-K1 (ATCC-CCL-61), transient co-transfection; conditions: for ability to induce calcium flux (P33 family): 0.1, 1, 10, 100, 1000, 10000 nM; for calcium flux (P58 family): dose response, FPRL1 transfected CHO cells
T2 sequence (P25090 1-351): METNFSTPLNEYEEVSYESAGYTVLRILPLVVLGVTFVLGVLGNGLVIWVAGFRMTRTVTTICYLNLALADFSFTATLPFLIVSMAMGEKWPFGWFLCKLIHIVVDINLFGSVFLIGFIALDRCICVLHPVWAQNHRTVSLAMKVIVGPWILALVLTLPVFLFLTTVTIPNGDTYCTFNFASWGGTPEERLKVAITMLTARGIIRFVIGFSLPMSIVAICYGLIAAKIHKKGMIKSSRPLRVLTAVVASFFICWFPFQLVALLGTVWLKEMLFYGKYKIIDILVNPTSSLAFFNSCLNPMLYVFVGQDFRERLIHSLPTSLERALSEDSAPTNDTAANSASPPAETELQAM
Protocol: as §1, §2, §3
as §4, with “Seventeen seconds following initiation of reading, cells were stimulated with the indicated agonist/compound at final concentration of 1 μM.” left out
as §5
The ability of Peptides to change calcium flux was examined in CHO-K1 cells co-transfected with FPRL1 and Gα16.
The P33-derived peptides (see FIG. 1): P33_V (SEQ ID NO:7), P33 (SEQ ID NO:6)-mono, P33 (SEQ ID NO:6)-dimer, P33—5 (SEQ ID NO:27), P33—8 (SEQ ID NO:14), P33—9 (SEQ ID NO:15) and P33—10 (SEQ ID NO:16) were tested for their ability to activate FPRL1 using the calcium flux assay in FPRL1-transfected CHO cells. […] The lack of activity of these peptides might be due to reduced potency; insufficient sensitivity of the experimental system, alternative interaction of the receptor, or activation of other pathways, which are not related to calcium flux. Thus, this interaction should be further characterized.

[3] = tested on: Zymosan-induced murine dorsal air pouch model; type: in vivo, mice; conditions: 4 h
Protocol: In order to analyze the ability of P58 to exert in vivo effects via the FPRL1 receptor, an acute experimental model of inflammation, the Zymosan-induced murine dorsal air pouch model, was used.
(§6) Male out-bred Swiss albino mice were purchased from Harlan, UK (T.O. strain) and maintained on a standard chow pellet diet with tap water ad libitum and a 12:00 h light /dark cycle. All animals were housed for 7 days prior to experimentation to allow body weight to reach ˜30 g on the day of the experiment.
Drugs were stored at −20° C. and defrosted on the day of the experiment. Peptide P58 was provided lyophilized; it was taken back to room temperature and dissolved with sterile PBS before use to make an initial 1 mg/ml solution. Peptide Ac2-26 (positive control) was also dissolved with sterile PBS before use to make an initial 1 mg/ml solution. Vehicle consisted of sterile pyrogen free PBS (Gibco, cat no. 14190-094). Once dissolved, P58 (SEQ ID NO:1) and Ac2-26 gave a clear solution. Drugs or vehicle were administered i.v. at a final volume of 200-μl, this volume containing the doses described below.
Lavage fluids were kept all the time on ice, then used to determine the number of migrated leukocytes, by taking an aliquot (100 μl) and diluting it 1:10 in Turk's solution (0.01% crystal violet in 3% acetic acid). The samples were then vortexed and 10 μl of the stained cell solution were placed in a Neubauer haematocymometer. Differential cell count was done using a light microscope (Olympus B061). In view of their chromatic characteristics and their nucleus and cytoplasm appearance, polymorphonuclear leukocytes (PMN; >95% neutrophils) could be easily identified.
For FACS analyses, an aliquot of lavage fluid was stained with the PE-conjugated anti-GR-1 monoclonal antibody (1:100 dilution, BD Biosciences; Cat 553128) to mark polymorphonuclear leukocytes. Staining was performed at 4° C.
Flow cytometry was performed using FACScan analyser (Becton Dickinson, Cowley, UK) with air-cooled 100 mW argon laser tuned to 488 nm connected to an Apple Macintosh G3 computer running Cell Quest II software. Forward and sidescatter characteristics were initially used to distinguish between the three distinct cell populations (lymphocytes, monocytes and granulocytes). Cells positive for GR-1 were detected in the FL2 channel (wavelength of 548 nm). Data are expressed as percentage of positive cells (in relation to the specific mAb). Determination of positive and negative populations was performed based on the control staining with irrelevant IgG isotype (rat IgG2b) labelled with PE. Once determined, quadrants were rigorously maintained for all analyses.
Data are shown for single mice, and also shown as mean±S.E. of (n) mice per group. Statistical differences were determined by ANOVA, plus Student Newman Keuls test. A P value <0.05 was taken as significant.
The anti-inflammatory activity of P58 shorter derivatives was tested in the same model of acute inflammation used in Example 6, the Zymosan-induced murine dorsal air pouch model.
as §6, with “˜25” for “˜30”
Drugs were stored at −20° C. and defrosted on the day of the experiment. Peptide P58 (SEQ ID NO:1) was provided lyophilized; it was taken back to room temperature and dissolved with sterile PBS before use to make an initial 1 mg/ml solution. Peptide P58-4 (SEQ ID NO:2) was provided lyophilized; it was taken back to room temperature and dissolved with sterile PBS before use to make an initial 327 μg/ml solution. Peptide P58-5 (SEQ ID NO:3) was provided lyophilized; it was taken back to room temperature and dissolved with sterile PBS before use to make an initial 476 μg/ml solution. […]

| Substance | ability to induce calcium flux (P33 family) [2] | calcium flux (P58 family) [2] | ability to induce calcium flux, relative potency (P33 family) [1] | other results |
| --- | --- | --- | --- | --- |
| SMCHRWSRAVLFPAAHRP [P33_mono] (listed as Homo sapiens) [Peptide P33_mono] | similarly potent |  | equally potent |  |
| LQKFTSWFM-amide (LQKFTSWFM-NH2; listed as Homo sapiens) [P58—5] |  | elicited calcium flux |  | inhibition of leukocyte accumulation triggered by zymosan A ([3]; Example 7, 20 nmole/mouse i.v.): did not inhibit leukocyte migration; inhibition of zymosan-induced neutrophil (GR-1+) accumulation ([3]; Example 7, 20 nmole/mouse i.v., FACS): weak effect; inhibition of leukocyte accumulation triggered by zymosan A ([3]; Example 7, 80 nmole/mouse i.v.): 29% |
| Ac2-26: a peptide derived from the N-terminus of AnnexinI, known FPRL1 agonist, positive control (AMVSEFLKQAWFIENEEQEYVQTVK) [reference compound] |  |  |  | inhibition of leukocyte accumulation triggered by zymosan A ([3]; Example 6, 200 μg/mouse i.v.): inhibited significantly; inhibition of neutrophil (GR-1+) accumulation triggered by zymosan A ([3]; Example 6, 200 μg/mouse i.v., FACS): 52% |
| SMCHRWSRAVLFPAAHRP [P33_dimer] (also: disulfide dimer via cysteine; listed as Homo sapiens) [Peptide P33_dimer] |  |  | superior to the monomeric peptides |  |
| IYLNRKRRGDPAFKRRLRD (listed as Homo sapiens) [P61—4] |  |  |  | ability to induce calcium flux, relative potency (P61 family) [1]: somewhat weaker |
| WSRAVLFPAAHRP (listed as Homo sapiens) [P33—10] | failed to induce calcium flux |  | induced calcium flux, albeit at a somewhat lower degree compared to P33_V |  |
| Angiotensin 1-7 [Ang-(1-7), reference compound] |  |  |  | Ca response ([1]; Mas dose response experiment, data not shown): did not induce Ca response |
| AVLFPAAHRP (listed as Homo sapiens) [P33—5] | failed to induce calcium flux |  |  |  |
| RWSRAVLFPAAHRP (listed as Homo sapiens) [P33—8] | failed to induce calcium flux |  | induced calcium flux, albeit at a somewhat lower degree compared to P33_V |  |
| HRWSRAVLFPAAHRP (listed as Homo sapiens) [P33—9] | failed to induce calcium flux |  | induced calcium flux, albeit at a somewhat lower degree compared to P33_V |  |
| FAFLGYSIYLNRKRRGDPAF (listed as Homo sapiens) [P61—11S] |  |  |  | ability to induce calcium flux, relative potency (P61 family) [1]: as potent as P61_S |
| FTSWFM-amide (FTSWFM-NH2; listed as Homo sapiens) [P58—4] |  | elicited calcium flux |  | inhibition of leukocyte accumulation triggered by zymosan A ([3]; Example 7, 20 nmole/mouse i.v.): 35%; inhibition of leukocyte accumulation triggered by zymosan A ([3]; Example 7, 80 nmole/mouse i.v.): 47%; inhibition of zymosan-induced neutrophil (GR-1+) accumulation ([3]; Example 7, 80 nmole/mouse i.v., FACS): 49% |

More lines, main results first:

| ability to induce calcium flux (P33 family) [2] | calcium flux (P58 family) [2] | Substance | ability to induce calcium flux, relative potency (P33 family) [1] | other results |
| --- | --- | --- | --- | --- |
|  | did not induce calcium flux | TIPMFVPESTSTLQ (listed as Homo sapiens) [P58—12] |  |  |
|  | did not induce calcium flux | TIPMFVPESTSKLQ (listed as Homo sapiens) [P58—7] |  |  |
|  | did not induce calcium flux | TIPMFVPESTS (listed as Homo sapiens) [P58—6] |  |  |
|  | elicited calcium flux | TIPMFVPESTSTLQKFTSWFM-amide (TIPMFVPESTSTLQKFTSWFM-NH2; listed as Homo sapiens) [P58—10] |  |  |

Source: US8828940B2, “Method of treating an ischemia-reperfusion injury-related disorder by administering GPCR ligands” (priority 2006, dated 2014)
